Measurements from the Human Domainome abundance scans (Beltran et al. 2025).

B1: Histone-lysine N-methyltransferase 2A, residues 1148 to 1194; numbered along this chain, Q03164 (parent)
chain: KGRRSRRCGQCPGCQVPEDCGVCTNCLDKPKFGGRNIKKQCCKMRKC

Variants of: B1
Test: abundance fitness (aPCA) (normalised: wild type 0, dead -1); higher = more abundant; growth selection in yeast, the domain comes from the species named
Details: Homo sapiens

Abundance fitness of substitutions, site by site:
C26: H -0.988, V -1.04, S -1.02, F -0.991, L -0.902, M -0.876, K -0.785, Y -0.851, P -0.75, T -0.959, E -0.81, W -0.778, G -0.974, R -0.602, A -0.914, D -0.76
K38: A -0.099, D -0.111, L 0.143, R -0.036, E -0.166, P -0.29, T -0.221, F -0.125, M -0.136, I 0.275, G -0.35, S -0.011, C -0.363, Q -0.348, W -0.245
C42: H -0.809, M -1.01, Y -0.792, N -1, I -1, Q -0.955, D -0.849, F -0.647, V -0.813, P -0.709, T -0.824, A -0.952, R -0.569, L -0.651, E -0.604, G -0.909, W -0.821
K29: Q -0.427, S -0.416, R -0.368, H -0.618, Y -0.564, M -0.408, W -0.686, D -0.411, P -0.58, N -0.55, G -0.463, E -0.519, F -0.648, T -0.397, V -0.51, L -0.671
N25: L -0.536, M -0.084, R -0.599, W -0.107, G -0.342, Y -0.148, T -0.325, K -0.633, S 0.024, I 0.121, Q -0.481, V -0.02, H -0.374, D -0.233, A -0.078, F -0.377
R35: I -0.438, A 0.189, F -0.043, G 0.022, S -0.01, D 0.168, W -0.524, H 0.128, K 0.19, C -0.229, Y -0.036, T -0.016, V -0.089, P 0.075, Q 0.065, M 0.143, N 0.343
L27: H -0.34, W -0.554, N -0.518, V -0.539, R -0.35, A -0.257, K -0.293, P -0.799, C -0.569, D -0.419, F -0.353, Q -0.064, Y -0.334, G -0.583, S -0.554, E -0.129
C23: V -0.814, I -0.505, R -0.884, N -0.766, W -1.03, Y -0.987, T -0.641, P -0.736, Q -0.623, K -1
K43: E 0.179, F -0.224, D 0.018, A -0.015
C41: H 0.098, I 0.048, N 0.27, A -0.104, S -0.066, P 0.028, R -0.014, Y -0.322, D 0.3, K -0.123, F -0.095, Q 0.119, V 0.094, L -0.241, M 0.127, T -0.195, G 0.04, W -0.095
P30: Y -0.712, E 0.109, K -0.669, R -0.432, T -0.312, F -0.705, V -0.594, N 0.057, W -0.711, D -0.77, L -0.361, A -0.187, S -0.303, I -0.256, G -0.213, Q -0.381, H -0.26
Q40: P -0.512, G 0.034, N -0.461, L -0.177, R -0.229, A -0.317, D -0.03, S -0.103, V -0.042, E 0.312, T -0.234, W -0.545, F -0.089, I -0.772, Y -0.493, K -0.249, M -0.138, C -0.284, H -0.312
G34: Y -0.774, K -0.478, E -0.133, S -0.288, C -0.32, I -0.787, R -0.52, A -0.463, T -0.316, H -1.07, P -0.448, F -0.409, V -0.453, W -0.906, D -0.236
F32: N -0.228, K -0.39, Q -0.09, H -0.091, I -0.641, C -0.286, R -0.496, D 0.01, S -0.185, A -0.013, L -0.327, E 0.186, P -0.257, Y -0.068, T -0.272, W -0.337
T24: C -0.441, P -0.091, I -0.345, V -0.479, G -0.207, R -0.611, F -0.412, N -0.521, E 0.038, S -0.256, M -0.149, Q -0.067, K -0.297, A -0.143, Y -0.238, H -0.069, L -0.477, W -0.392
N36: Q 0.151, K -0.63, E 0.003, A -0.339, M -0.274, V -0.814, F -0.694, G -0.091, R -0.672, S -0.523, I -0.952, H -0.076, W -0.595, T -0.731, L -0.651, P -0.62, Y -0.569, D 0.134, C -0.344
I37: T -0.153, H -0.258, D 0.265, Q -0.024, S 0.037, K -0.166, L -0.159, M 0.002, Y -0.265, P -0.554, W -0.431, N 0.093, C 0.095, V 0.02, R -0.421, E 0.274, G -0.056, A -0.025
D28: V -0.374, H -1, G -0.461, S -0.626, I -0.628, M -0.761, A -0.475, E -0.502, R -0.618, N -0.326, T -1.09, C -0.868, W -1.05, Q -0.509, L -0.921, Y -0.657, P -0.937, K -0.752, F -0.856
G33: C -0.677, L -0.631, Q -0.535, M -0.494, P -0.707, W -0.853, A -0.394, K -0.936, V -0.418, T -0.526, R -0.783, Y -0.613, F -1.04, N -0.289
K31: I -0.24, R -0.311, Q -0.285, F -0.627, H -0.429, A -0.195, T -0.264, L -0.316, M -0.444, Y -0.253, S -0.404, G -0.319, N -0.159, P -0.227, E -0.271, W -0.685
K39: I -0.161, Q 0.042, N -0.35, Y -0.683, M -0.124, V 0.063, D 0.101, E 0.156, T -0.187, S 0.007, P -0.06, H -0.11, W -0.416, C -0.2, L -0.086, G -0.004, R -0.185, A -0.074
